Holding throughout (format): biochemical, Arthrobacter sp. TE1826
Substrate in data set [1]: CNCC(=O)O
The experiment in a line: Km of modified sarcosine oxidase SAOM5B. The settings on record: other: SAOM5B, 37° C., pH 8.0. The protocol:
(§1) • 100 mM Tris-HCl buffer (pH 8.0) (containing 200 mM sarcosine and 0.1% Triton X-100) • 0.1% 4-aminoantipyrine • 0.1% phenol • 25 U/mL peroxidase <Measurement Condition>
(§2) A reaction mixture is prepared by mixing the above Tris-HCl buffer, 4-aminoantipyrine solution, phenol solution and peroxidase solution at a ratio of 5:1:2:2. The reaction mixture (1 mL) is taken to a test tube, preliminarily warmed at 37° C. for about 5 min, and 0.05 mL of an enzyme solution is added to start the reaction. The reaction at 37° C. is performed accurately for 10 min, then 2.0 mL of an aqueous solution of 0.25% SDS is added to stop the reaction, and an absorbance at 500 nm of this solution is measured. In a blind test, distilled water instead of the enzyme solution is added to the reagent mixture, and the same manipulation is followed to measure the absorbance. […] The reactivity to proline was measured as a relative ratio of activities when sarcosine in the above reagent was replaced by L-proline at the same concentration. […]
(§3) Various sarcosine oxidases obtained in Example 3B and Comparative Example 1 were evaluated.
(§4) Action on proline was calculated from a relative ratio (%) of the enzyme activity using L-proline as the substrate to the enzyme activity suing sarcosine as the substrate in the above activity measurement method. […]

Substrate in data set [2]: CNCC(=O)O
Description: Km of modified sarcosine oxidase SAOM8B. The settings on record: other: SAOM8B, 37° C., pH 8.0. The method, then: as §1, §2, §3, §4

Substrate in data set [3]: CNCC(=O)O
Description: Km of modified sarcosine oxidase SAOM1B. The settings on record: other: SAOM1B, K89R, 37° C., pH 8.0. The method, then: as §1, §2, §3, §4

Substrate in data set [4]: CNCC(=O)O
Description: Km of modified sarcosine oxidase SAOM7B. The conditions noted are these: other: SAOM7B, 37° C., pH 8.0. The protocol: as §1, §2, §3, §4

Substrate in data set [5]: CNCC(=O)O
The experiment in a line: Km of unmodified sarcosine oxidase (control, Comparative Example 1). The conditions noted are these: other: unmodified (control), 37° C., pH 8.0. The method, then: as §1, §2, §3, §4

Substrate in data set [6]: CNCC(=O)O
Description: Km of modified sarcosine oxidase SAOM2B. The settings on record: other: SAOM2B, V94G, 37° C., pH 8.0. The method, then:
as §1, §2, §3, §4

Substrate in data set [7]: CNCC(=O)O
Description: Km of modified sarcosine oxidase SAOM6B. The conditions noted are these: other: SAOM6B, 37° C., pH 8.0. The method, then: as §1, §2, §3, §4

The results in this text go back to patent publication US20060051832A1, “Modified sarcosine oxidase, process for producing the same and reagent composition using the same” (Toyo Boseki Kabushiki Kaisha, priority 2002, published 2006).

B1: Arthrobacter sp. TE1826 sarcosine oxidase (SEQ ID NO:1) variant SAOM5B, V94G, E250Q, K89R (Arthrobacter sp. TE1826; E250Q/K89R/V94G) (protein)
chain: MSIKKDYDVIVVGAGSMGMAAGYYLSKQGVKTLLVDSFHPPHTNGSHHGDTRIIRHAYGEGREYVPFALRAQELWYELEKETHHKIFTRTGVLGFGPKGEAPFVAETMEAAKEHSLDVDLLEGSEINKRWPGVTVPENYNAIFEKNSGVLFSENCIRAYRELAEANGAKVLTYTPVEDFEIAEDFVKIQTAYGSFTASKLIVSMGAWNSKLLSKLNIEIPLQPYRQVVGFFECDEKKYSNTHGYPAFMVQVPTGIYYGFPSFGGCGLKIGYHTYGQKIDPDTINREFGIYPEDEGNIRKFLETYMPGATGELKSGDVCMYTKTPDEHFVIDLHPQFSNVAIAAGFSGHGFKFSSVVGETLSQLAVTGKTEHDISIFSINRPALKQKETI
Regarding B1, the Km in data set [1] was found to be 3.3 mM mM.

B2: Arthrobacter sp. TE1826 sarcosine oxidase (SEQ ID NO:1) variant SAOM8B, K89R, V94G, N166K, M204A, S213P, E250Q (Arthrobacter sp. TE1826; … (protein)
chain: MSIKKDYDVIVVGAGSMGMAAGYYLSKQGVKTLLVDSFHPPHTNGSHHGDTRIIRHAYGEGREYVPFALRAQELWYELEKETHHKIFTRTGVLGFGPKGEAPFVAETMEAAKEHSLDVDLLEGSEINKRWPGVTVPENYNAIFEKNSGVLFSENCIRAYRELAEAKGAKVLTYTPVEDFEIAEDFVKIQTAYGSFTASKLIVSAGAWNSKLLPKLNIEIPLQPYRQVVGFFECDEKKYSNTHGYPAFMVQVPTGIYYGFPSFGGCGLKIGYHTYGQKIDPDTINREFGIYPEDEGNIRKFLETYMPGATGELKSGDVCMYTKTPDEHFVIDLHPQFSNVAIAAGFSGHGFKFSSVVGETLSQLAVTGKTEHDISIFSINRPALKQKETI
As for B2, the Km in data set [2] worked out at 3.4 mM mM.

B3: Arthrobacter sp. TE1826 sarcosine oxidase (SEQ ID NO:1) variant SAOM1B, K89R (Arthrobacter sp. TE1826; K89R) (protein)
chain: MSIKKDYDVIVVGAGSMGMAAGYYLSKQGVKTLLVDSFHPPHTNGSHHGDTRIIRHAYGEGREYVPFALRAQELWYELEKETHHKIFTRTGVLVFGPKGEAPFVAETMEAAKEHSLDVDLLEGSEINKRWPGVTVPENYNAIFEKNSGVLFSENCIRAYRELAEANGAKVLTYTPVEDFEIAEDFVKIQTAYGSFTASKLIVSMGAWNSKLLSKLNIEIPLQPYRQVVGFFECDEKKYSNTHGYPAFMVEVPTGIYYGFPSFGGCGLKIGYHTYGQKIDPDTINREFGIYPEDEGNIRKFLETYMPGATGELKSGDVCMYTKTPDEHFVIDLHPQFSNVAIAAGFSGHGFKFSSVVGETLSQLAVTGKTEHDISIFSINRPALKQKETI
In the case of B3, the Km in data set [3] was 3.4 mM mM.

B4: Arthrobacter sp. TE1826 sarcosine oxidase (SEQ ID NO:1) variant SAOM7B, K89R, V94G, M204A, S213P, E250Q (Arthrobacter sp. TE1826; E250Q/K89R/M204A/S213P/V94G) (protein)
chain: MSIKKDYDVIVVGAGSMGMAAGYYLSKQGVKTLLVDSFHPPHTNGSHHGDTRIIRHAYGEGREYVPFALRAQELWYELEKETHHKIFTRTGVLGFGPKGEAPFVAETMEAAKEHSLDVDLLEGSEINKRWPGVTVPENYNAIFEKNSGVLFSENCIRAYRELAEANGAKVLTYTPVEDFEIAEDFVKIQTAYGSFTASKLIVSAGAWNSKLLPKLNIEIPLQPYRQVVGFFECDEKKYSNTHGYPAFMVQVPTGIYYGFPSFGGCGLKIGYHTYGQKIDPDTINREFGIYPEDEGNIRKFLETYMPGATGELKSGDVCMYTKTPDEHFVIDLHPQFSNVAIAAGFSGHGFKFSSVVGETLSQLAVTGKTEHDISIFSINRPALKQKETI
In the case of B4, the Km in data set [4] stood at 3.4 mM mM.

B5: Arthrobacter sp. TE1826 sarcosine oxidase, wild type (unmodified), SEQ ID NO:1 (Arthrobacter sp. TE1826) (protein)
chain: MSIKKDYDVIVVGAGSMGMAAGYYLSKQGVKTLLVDSFHPPHTNGSHHGDTRIIRHAYGEGREYVPFALRAQELWYELEKETHHKIFTKTGVLVFGPKGEAPFVAETMEAAKEHSLDVDLLEGSEINKRWPGVTVPENYNAIFEKNSGVLFSENCIRAYRELAEANGAKVLTYTPVEDFEIAEDFVKIQTAYGSFTASKLIVSMGAWNSKLLSKLNIEIPLQPYRQVVGFFECDEKKYSNTHGYPAFMVEVPTGIYYGFPSFGGCGLKIGYHTYGQKIDPDTINREFGIYPEDEGNIRKFLETYMPGATGELKSGDVCMYTKTPDEHFVIDLHPQFSNVAIAAGFSGHGFKFSSVVGETLSQLAVTGKTEHDISIFSINRPALKQKETI
On to B5, for which the Km in data set [5] worked out at 3.4 mM mM.

B6: Arthrobacter sp. TE1826 sarcosine oxidase (SEQ ID NO:1) variant SAOM2B, V94G (Arthrobacter sp. TE1826; V94G) (protein)
chain: MSIKKDYDVIVVGAGSMGMAAGYYLSKQGVKTLLVDSFHPPHTNGSHHGDTRIIRHAYGEGREYVPFALRAQELWYELEKETHHKIFTKTGVLGFGPKGEAPFVAETMEAAKEHSLDVDLLEGSEINKRWPGVTVPENYNAIFEKNSGVLFSENCIRAYRELAEANGAKVLTYTPVEDFEIAEDFVKIQTAYGSFTASKLIVSMGAWNSKLLSKLNIEIPLQPYRQVVGFFECDEKKYSNTHGYPAFMVEVPTGIYYGFPSFGGCGLKIGYHTYGQKIDPDTINREFGIYPEDEGNIRKFLETYMPGATGELKSGDVCMYTKTPDEHFVIDLHPQFSNVAIAAGFSGHGFKFSSVVGETLSQLAVTGKTEHDISIFSINRPALKQKETI
Take B6: the Km in data set [6] is 4.1 mM mM.

B7: Arthrobacter sp. TE1826 sarcosine oxidase (SEQ ID NO:1) variant SAOM6B, K89R, V94G, S213P, E250Q (Arthrobacter sp. TE1826; E250Q/K89R/S213P/V94G) (protein)
chain: MSIKKDYDVIVVGAGSMGMAAGYYLSKQGVKTLLVDSFHPPHTNGSHHGDTRIIRHAYGEGREYVPFALRAQELWYELEKETHHKIFTRTGVLGFGPKGEAPFVAETMEAAKEHSLDVDLLEGSEINKRWPGVTVPENYNAIFEKNSGVLFSENCIRAYRELAEANGAKVLTYTPVEDFEIAEDFVKIQTAYGSFTASKLIVSMGAWNSKLLPKLNIEIPLQPYRQVVGFFECDEKKYSNTHGYPAFMVQVPTGIYYGFPSFGGCGLKIGYHTYGQKIDPDTINREFGIYPEDEGNIRKFLETYMPGATGELKSGDVCMYTKTPDEHFVIDLHPQFSNVAIAAGFSGHGFKFSSVVGETLSQLAVTGKTEHDISIFSINRPALKQKETI
Regarding B7, the Km in data set [7] is reported as 3.5 mM mM.
